Data reported in the supplement of paper PMC9170038.

What was measured:
MS2 coat protein [1] = assay: apparent KD of MS2 coat protein, switch ON state; designed switch direction (-1 OFF switch, 1 ON switch): 1; higher = weaker reporter binding; conditions: FMN input: 0 or 200 uM; Eterna round: R93 (includes R88 designs)
Procedure, shortened: (§1)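 Apparent KD is reported per design as the median of normalised binding-curve fits across its clusters. The RNA switches were made by on-chip transcription from Illumina sequencing clusters. SNAP-549-labelled MS2 coat protein was then added in twofold steps (0.7 or 1.5 nM to 3 µM; 0.8–1.5 h to 10–20 min per step) in 100 mM Tris-HCl pH 7.5, 80 mM KCl, 4 mM MgCl2, without or with constant ligand.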

MS2 coat protein [2] = assay: apparent KD of MS2 coat protein, switch OFF state (with FMN for OFF switches, without FMN for ON switches); designed switch direction (-1 OFF switch, 1 ON switch): 1; higher = weaker reporter binding; conditions: FMN input: 0 or 200 uM; Eterna round: R93 (includes R88 designs)
Procedure, shortened: as §1

Row | Sequence | apparent KD of MS2 coat protein (MS2 coat protein [1]) | apparent KD of MS2 coat protein (MS2 coat protein [2])
1 | AACAACAAUAUGAAGGAUAUCCACAACAAGACAUGAGGAUCACCCAUGUAAACUUAGAACAUACAGGAGAAGGUCAAGGGUGAAU [JR_SS002_Sub1204] | 221 nM | 63.2 nM
2 | AACAAUCUAUCUGAGGAUAUAUGUCGAAAGACAUGAGGAUCACCCAUGUGAAAACAUGAAAAAACAUAGAAGGCAGAUAGAUUGA [SS2: 1136] | 28.5 nM | 54.3 nM
3 | AACAAUCUAUCUGAGGAUAUCAUGUCAAAGACAUGAGGAUCACCCAUGUAGCAGGAAACUGCUUAUGAGAAGGCAGAUAGAUUGA [SS2: 1114] | 69.4 nM | 450 nM
4 | AACAAUCUAUCUGAGGAUAUCAUGUCAAAGACAUGAGGAUCACCCAUGUGCAGGAAAACUGCUCAUGAGAAGGCAGAUAGAUUGA [SS2: 1110] | 464 nM | 167 nM
5 | AACUAACAUGAGGAUCACCCAUGUAUUCAAACAUGAGGAUAUAUAACACAUCAUCGACGGAUAGAAGGCAUAAAUA [JR_SS001_Sub1206] | 92 nM | 86.6 nM
6 | AACUACAUUAUGAAGGAUAUCCACAUCAAGACAUGAGGAUCACCCAUGUAAACUUAGAACAUACAGGAGAAGGUCAAGGGUGAAU [JR_SS002_Sub1206] | 234 nM | 69.2 nM
7 | AAGAAAAAAAGGCAGGAUAUCCAAAAAAAAACAUGAGGAUCACCCAUGUAAAAAUAAAAAAAAUGGGAGAAGGGCCAAAAAAGAA [Mat - Same State 2 - Mod - 154] | 13.8 nM | 22.1 nM
8 | AAGAAACAUGAGGAUCACCCAUGUAAGAAUAUGGGAGGAUAUGCGAAAAGAAACAAAGAAGCAGAAGGCCUAAGAA [75%, Ex5 sub 1, 5] | 26.6 nM | 57.6 nM
9 | AAGAAACAUGAGGAUCACCCAUGUAGAAAUAUGGGAGGAUAUACAAGGACGUAAGUCAAGGUAGAAGGCCUAAGAA [Mat - Same State 1 - Meechl mod - D135] | 26 nM | 97 nM
10 | AAGAAACAUGAGGAUCACCCAUGUGAGAAAAACACAGGAUAUGCAAAAGAAAGAAAGAAAGCAGAAGGGUGAAGAA [Mat - Same State 1 - Tesla mod - 52] | 22.5 nM | 74 nM
11 | AAUAAACAUGAGGAUCACCCAUGUUUUAAUAGUUGAGGAUAUAAGGGUGAAAAUAGCAUAUUAGAAGGCGAGUGUA [SameState1 Malc#14] | 32.7 nM | 31.7 nM
12 | AAUAAUUAUACGAAGGAUAUCGGUAAUUAGACAUGAGGAUCACCCAUGUAAUAAGGUUAAAUAAACGAGAAGGUCGAGGGUGAAA [JR_SS002_Sub501] | 66.9 nM | 41.5 nM
13 | AAUACACAUGGUCAGGAUAUCGCAGCUAGGACAUGAGGAUCACCCAUGUCGCACGUAACCGUAACCGAGAAGGGACAGGGUGACC [JR_SS002_Sub409] | 36.9 nM | 15.2 nM
14 | AAUACACAUGGUCAGGAUAUCGCAGCUAGGACAUGAGGAUCACCCAUGUCGCACGUAACCGUAACCGAGAAGGGACAGGGUGAUC [JR_SS002_Sub410] | 21.8 nM | 34 nM
15 | AAUACACAUGGUCAGGAUAUCGCAGCUAGGACAUGAGGAUCACCCAUGUCGCAUGUAACUGUAACCGAGAAGGGACAGGGUGAUC [JR_SS002_Sub411] | 123 nM | 92.6 nM
16 | AAUAUACAUGAGGAUCACCCAUGUGAAAAUAUGGGAGGAUAUCGGAAAAAAAAAAAAAAACGAGAAGGCCCAAAAA [SS! 1 MT 13] | 20.8 nM | 119 nM
17 | AAUAUAUUAAGUGAGGAUAUCAAGAAAAAAACAUGAGGAUCACCCAUGUGGGAAACACGAUAGGGUGAGAAGGUACUUAAUAUAU [Samwise Clockwise 19 - Jieux - Same State 2] | 84.5 nM | 42.5 nM
18 | ACUACACAUGAGGAUCACCCAUGUCAGGUGGGACUAGGAUAUUAUAAACCAGAGUAAUUAUAAGAAGGAGUAGAAA [JR_SS001_Sub307] | 32.6 nM | 42.2 nM
19 | ACUUCACAUGAGGAUCACCCAUGUCAGGCCGGACUAGGAUAUUAUCAUGCAGCGUAACCAUAAGAAGGAGUAGGAA [JR_SS001_Sub314] | 136 nM | 57.3 nM
20 | AGAAAACAUGAGGAUCACCCAUGUAGAAAUAUGGGAGGAUAUACGAAGACGAAAGUCAAAGUAGAAGGCCUAAAGA [Mat - Same State 1 - Eli mod - D101] | 23.6 nM | 77.6 nM
21 | AGAAAACAUGAGGAUCACCCAUGUUAGUGUCAUUAAGGAUAUAGGCUUAAGAAUCUGAGACUAGAAGGUGGUGCGC [Orbeus] | 21.9 nM | 30.8 nM
22 | AGAAAUAAAACACAGGAUAUCCAAAAUAAAACAUGAGGAUCACCCAUGUAAAAUAAAAUAAAAUGGGAGAAGGGUGAAAAUAAAG [Mat - Same State 2 - JL mod - D10] | 25.3 nM | 39.9 nM

Row | Sequence | apparent KD of MS2 coat protein (MS2 coat protein [1]) | apparent KD of MS2 coat protein (MS2 coat protein [2])
23 | AGAAAUAAAAGAGAGGAUAUCUCAAAGAAAACAUGAGGAUCACCCAUGUAAAAGAAAAUAAAAUGGGAGAAGGCUCAUAAUAAAG [JL Skelter Mod 5 In the Red] | 54.3 nM | 133 nM
24 | AGAAAUAAAGGAGAGGAUAUCCAAAAGAAAACAUGAGGAUCACCCAUGUAAAAGAAAAUAAAAUGGGAGAAGGCUUCAAAUAAGA [Starry modified V4] | 52.3 nM | 46.4 nM
25 | AGAAAUAAAUGAGAGGAUAUCCAAAAGAAAACAUGAGGAUCACCCAUGUAAAAGAAAAUAAAAUGGGAGAAGGCUCAAAAUAAAG [80%, More Helter Skelter 2] | 23.5 nM | 58.5 nM
26 | AGACAUAACAGAGAGGAUAUCCAAUAGAAAACAUGAGGAUCACCCAUGUGAAAGAUAAUAAAAUGGGAGAAGGCUCACAUACAGA [Topaz 40] | 19.5 nM | 30.4 nM
27 | AGAGUAAACAGAGAGGAUAUCCAAUAGAAAACAUGAGGAUCACCCAUGUGAAAGAUAAUAAAAUGGGAGAAGGCUCACAAUAAGA [Topaz 43] | 24.6 nM | 49.4 nM
28 | AGCAUGCGAUAUAAGGAUAUGUUGUUUGCAACAUGAGGAUCACCCAUGUUUGAGGCUGAAAAGCAGCAGAAGGUAUAUACAAGCA [SS2-1.0] | 9.45 nM | 13 nM
29 | AGGAAACAUGAGGAUCACCCAUGUAAAAAAUAGGGAGGAUAUACUAGAAGAAACAAAAUAGUAGAAGGUCCAAAAA [75%, Ex sub1, 24] | 18.4 nM | 27.6 nM
30 | AGGAAACAUGAGGAUCACCCAUGUAAAAAUAUGGGAGGAUAUACAAAGACGAAAGUCAAAGUAGAAGGCCUAAAAG [77%, Mat - Mod of Eli, 4] | 21.4 nM | 60.1 nM
31 | AGGAAACAUGAGGAUCACCCAUGUAAAAAUAUGGGAGGAUAUACGAAGAAAAAAAAAAAAGUAGAAGGCCUAAAAG [Garnet 11] | 90.7 nM | 345 nM
32 | AGGAAACAUGAGGAUCACCCAUGUAAAAAUAUGGGAGGAUAUACUAGAAGAAACAAAAUAGUAGAAGGCCUAAAAA [75%, Ex sub1, 26] | 17.4 nM | 47.4 nM
33 | AGGAGACAUGAGGAUCACCCAUGUGAGAAGAGGCGAGGAUAUCGAAAGAAAGAAGAGAAACGAGAAGGCGCGAGGG [salish99-SS1-027] | 26.9 nM | 39.2 nM
34 | AGGUAACAUGAGGAUCACCCAUGUACCGAUAAUGCAGGAUAUCGACACGAAAAUACGUGUCGAGAAGGGCAUGAAA [SS1 MT 23] | 14.3 nM | 13.5 nM
35 | AUAAAAUAAAGUGAGGAUAUCUAUAAUAAAACAUGAGGAUCACCCAUGUUAAAAAAAAGAUCAUGGGAGAAGGCAUAAAAUAAAU [SS2 M 31] | 7.51 nM | 21.7 nM
36 | AUAACACAUGAGGAUCACCCAUGUAGAAACAAGUCAGGAUAUCCGAUCCACAUGUGAAAAGGAGAAGGGACACUAA [SS 1 Tesla 6] | 37.4 nM | 146 nM
37 | AUGAAAGUAACACAGGAUAUCCAGGAUACAACAUGAGGAUCACCCAUGUACAUACGAACGUAUAAGGAGAAGGGUGGAUGAUCUUC [ss2-2] | 50.7 nM | 59.3 nM
38 | AUGAAGGAGAGAGAGGAUAUCCAAAGGGAAACAUGAGGAUCACCCAUGUAGAAGGUAGGAAAUUGGGAGAAGGCUCAAGAGAGAG [salish99-ss2-111] | 25.4 nM | 26.9 nM
39 | CAGGACGUAGGAUAGGAUAUAUGAAUAAUUACAUGAGGAUCACCCAUGUCCAUUUAUAUGGGAACAUAGAAGGGUUGUGGUUAUG [Mat - Same state - Malcolm Mod - D144] | 680 nM | 315 nM
40 | CAUAGACAUGAGGAUCACCCAUGUAGAAUUAUGGGAGGAUAUACAAAGACGAGAGUCAGAGUAGAAGGCCUAGGAA [salish99-ss1-160] | 20.2 nM | 38.6 nM
41 | CAUCACGCGCCUAAGGAUAUGUCUCACAAGACAUGAGGAUCACCCAUGUAGACUAAAUAAACGAUGCAGAAGGUGGAGCGCAUGC [Usrexe] | 76.4 nM | 149 nM
42 | CAUCAUGCGCCUAAGGAUAUGUCUCACAAGACAUGAGGAUCACCCAUGUAGAACAAAUAAGUGAUGCAGAAGGUGGAGCGCAUGC [Edcequed] | 18.9 nM | 137 nM
43 | CGCGAACAUGAGGAUCACCCAUGUAAAUCGCAUGUAGGAUAUGGGAUACACAUUAAGAUCCCAGAAGGGCGGAAAA [Leeroner] | 23.8 nM | 23.5 nM
